In the Human Domainome abundance scans (Beltran et al. 2025):
± gives the uncertainty stated by the source.

B1: Neutrophil cytosol factor 2, residues 456 to 514; numbered along this chain, P19878 (parent)
chain: LKKGSQVEALFSYEATQPEDLEFQEGDIILVLSKVNEEWLEGECKGKVGIFPKVFVEDC

Variants of: B1
Experiment: abundance fitness (aPCA) (normalised: wild type 0, dead -1); higher = more abundant; growth selection in yeast, the domain comes from the species named
Conditions: Homo sapiens

LKKGSQVEALFSYEATQPEDLEFQEGDAILVLSKVNEEWLEGECKGKVGIFPKVFVEDC [I28A] and LKKGSQVEALFSYEATQPEDLEFQEGDPILVLSKVNEEWLEGECKGKVGIFPKVFVEDC [I28P] are within error of each other in abundance fitness: -0.179 ± 0.13 for the first, 0.054 ± 0.18 for the second.

LKKGSQVEALFSYEATQPEDLEFQEGDNILVLSKVNEEWLEGECKGKVGIFPKVFVEDC [I28N] and LKKGSQVEALFSYEATQPEDLEFQEGDSILVLSKVNEEWLEGECKGKVGIFPKVFVEDC [I28S] are within error of each other in abundance fitness: 0.043 ± 0.11 for the first, 0.096 ± 0.072 for the second.

LKKGSQVEALFSYEATQPEDLEFQEGDIILVLSKVNEEWLEGERKGKVGIFPKVFVEDC [C44R] and LKKGSQVEALFSYEATQPEDLEFQEGDIILVLSKRNEEWLEGECKGKVGIFPKVFVEDC [V35R] are within error of each other in abundance fitness: -0.336 ± 0.12 for the first, -0.235 ± 0.096 for the second.

LKKGSQVEALFSYEATQPEDLEFQEGDIILVLSKANEEWLEGECKGKVGIFPKVFVEDC [V35A] and LKKGSQVEALFSYEATQPEDLEFQEGDIILVLSKFNEEWLEGECKGKVGIFPKVFVEDC [V35F] are within error of each other in abundance fitness: -0.074 ± 0.1 for the first, -0.264 ± 0.12 for the second.

LKKGSQVEALFSYEATQPEDLEFQEGDIILVLSKVNEEWLEGECKGKVGIMPKVFVEDC [F51M] and LKKGSQVEATFSYEATQPEDLEFQEGDIILVLSKVNEEWLEGECKGKVGIFPKVFVEDC [L10T] are within error of each other in abundance fitness: 0.006 ± 0.21 for the first, -0.528 ± 0.39 for the second.

Compared with LKKGSQVEAWFSYEATQPEDLEFQEGDIILVLSKVNEEWLEGECKGKVGIFPKVFVEDC [L10W], LKKGSQVEALFSYEATQPEDLEFQEGDIILVLSKVNEEWLEGECKGKVGIFPKVFVEVC [D58V] is higher in abundance fitness: -0.92 ± 0.35 for the first, -0.138 ± 0.16 for the second.

LKKGSQVEALFSYEATQPEDLERQEGDIILVLSKVNEEWLEGECKGKVGIFPKVFVEDC [F23R] and LKKGSQVEALFSYEATQPEDLEQQEGDIILVLSKVNEEWLEGECKGKVGIFPKVFVEDC [F23Q] are within error of each other in abundance fitness: -0.223 ± 0.12 for the first, 0.047 ± 0.35 for the second.

First: LKKGSFVEALFSYEATQPEDLEFQEGDIILVLSKVNEEWLEGECKGKVGIFPKVFVEDC [Q6F]
Second: LKKGSKVEALFSYEATQPEDLEFQEGDIILVLSKVNEEWLEGECKGKVGIFPKVFVEDC [Q6K]
The abundance fitness of the first is higher: 0.714 ± 0.14 for the first, 0.157 ± 0.14 for the second.

LKKGSQVEALFSYEATQPEDLEFQEGDIILPLSKVNEEWLEGECKGKVGIFPKVFVEDC [V31P] and LKKGSQVEALFSYEATQPEDLEFQEGDIILVLSKVNEIWLEGECKGKVGIFPKVFVEDC [E38I] are within error of each other in abundance fitness: -0.046 ± 0.14 for the first, -0.097 ± 0.12 for the second.

Going from LKKGSQVEALFSYEATQPEDLEFQEGDIILVLSKVNEHWLEGECKGKVGIFPKVFVEDC [E38H] to LKKGSQVEALFSYEATQPEDLEFQEGDIILVLSKVNEEWLEGECKGYVGIFPKVFVEDC [K47Y], the abundance fitness falls from -0.362 ± 0.17 to -0.742 ± 0.14.

Compared with LKKGSQVEALFSYEATQPEDLEFQEGSIILVLSKVNEEWLEGECKGKVGIFPKVFVEDC [D27S], LKKGSQVEALFSYEATQPEDLEFQEGIIILVLSKVNEEWLEGECKGKVGIFPKVFVEDC [D27I] is higher in abundance fitness: -0.666 ± 0.11 for the first, -0.179 ± 0.1 for the second.

Compared with LKKGSQVEALFSYEATQPEDLEFQEGDIILVLSKVNEEWSEGECKGKVGIFPKVFVEDC [L40S], LKKGSQVEALFSYEATQPEDLEFQEGDIILVLTKVNEEWLEGECKGKVGIFPKVFVEDC [S33T] is higher in abundance fitness: -0.729 ± 0.15 for the first, -0.289 ± 0.18 for the second.

Compared with LKKGSQVEALFSYEATQPEDLEFQEGDIILVLHKVNEEWLEGECKGKVGIFPKVFVEDC [S33H], LKKGSQVEALFSYEATQPEDLEFQGGDIILVLSKVNEEWLEGECKGKVGIFPKVFVEDC [E25G] is higher in abundance fitness: -0.596 ± 0.18 for the first, -0.201 ± 0.1 for the second.

Going from LKKGSQVAALFSYEATQPEDLEFQEGDIILVLSKVNEEWLEGECKGKVGIFPKVFVEDC [E8A] to LKKGSQVEALFSYEATQPEDLEFQEGDIILVLSKVNEEWLERECKGKVGIFPKVFVEDC [G42R], the abundance fitness falls from 0.164 ± 0.23 to -0.952 ± 0.19.

LKKGSQVEALFSYEATQPEDLEFQEGDIILVLSKVNEEWLEGECKGKVGSFPKVFVEDC [I50S] and LKKGSQVEALFSYEATQPEDLEFQEGDIILVLSKVNEEWLEGECKGKVGIFPKWFVEDC [V54W] are within error of each other in abundance fitness: -0.448 ± 0.14 for the first, -0.438 ± 0.2 for the second.

LKKGSQVEALFSYEATQPEDLEFQEGDIILVLSKVNEEWLEGECKGKVGIFPKDFVEDC [V54D] and LKKGSQVEALFSYEATQPEDLEFQEGDIILVLSKVNEEWLEGECKGKYGIFPKVFVEDC [V48Y] are within error of each other in abundance fitness: 0.049 ± 0.12 for the first, -0.17 ± 0.13 for the second.

LKKGSQVEALFSYEATQAEDLEFQEGDIILVLSKVNEEWLEGECKGKVGIFPKVFVEDC [P18A] and LKKGSQVEALFSYEATQEEDLEFQEGDIILVLSKVNEEWLEGECKGKVGIFPKVFVEDC [P18E] are within error of each other in abundance fitness: -0.284 ± 0.14 for the first, -0.48 ± 0.27 for the second.

LKKGSQVEALFSYEATQGEDLEFQEGDIILVLSKVNEEWLEGECKGKVGIFPKVFVEDC [P18G] and LKKGSQVEALFSYEATQPEDLEFQEGDIILVLSKVNEEWLEGECYGKVGIFPKVFVEDC [K45Y] are within error of each other in abundance fitness: -0.613 ± 0.14 for the first, -0.505 ± 0.16 for the second.

LKKGSQVEALFSYEATQPEDLEFQEGDIILVLSKVNEEWLEGECCGKVGIFPKVFVEDC [K45C] and LKKGSQFEALFSYEATQPEDLEFQEGDIILVLSKVNEEWLEGECKGKVGIFPKVFVEDC [V7F] are within error of each other in abundance fitness: -0.191 ± 0.14 for the first, -0.414 ± 0.43 for the second.

Compared with LKKGSQVEALFSYEATQPEDLEFQEGDIILVLSKVNEEWLMGECKGKVGIFPKVFVEDC [E41M], LKKGSQVEALFSYEATQPEDLEFQEGDIILVLSKVNEEWLTGECKGKVGIFPKVFVEDC [E41T] is lower in abundance fitness: 0.275 ± 0.13 for the first, -0.527 ± 0.17 for the second.

Compared with LKKGSQVEALFSYEATQPEDLEFQEGDIILVLSKVNEEWLCGECKGKVGIFPKVFVEDC [E41C], LKKGSQVEALFSYEATQPEDLEFQEGDIILVLSKVNEEWLHGECKGKVGIFPKVFVEDC [E41H] is lower in abundance fitness: 0.14 ± 0.095 for the first, -0.682 ± 0.27 for the second.

LKKGSQVEALFSYEATQPEDLEFQEYDIILVLSKVNEEWLEGECKGKVGIFPKVFVEDC [G26Y] and LKKGSQVEALFSYEATQPEDLEFQEEDIILVLSKVNEEWLEGECKGKVGIFPKVFVEDC [G26E] are within error of each other in abundance fitness: -1.03 ± 0.3 for the first, -0.473 ± 0.36 for the second.

LKKGSQVEALFSYEATQPEDLEFQEDDIILVLSKVNEEWLEGECKGKVGIFPKVFVEDC [G26D] showed an abundance fitness of -0.683 ± 0.25.
